Experiment [1] concerns the target APP-TAP-AICD (human) (UniProt P05067). The experiment is described as follows: streptavidin purification of APP-TAP-AICD from brain homogenate; iTRAQ 116/114, transgenic mouse 75 vs control mouse 72; MALDI-TOF/TOF.
Experiment [2] shares this target. The experiment is described as follows: streptavidin purification of APP-TAP-AICD from brain homogenate; LTQ-FT semiquantitative method, transgenic mouse 75 vs control mouse 72.

Regarding “Heat shock protein HSP 90-alpha (HSP 86) (Tumor specific transplantation 86 kDa antigen) (from UniProt P07901 2-733)”, in experiment [1], the iTRAQ ratio was determined as 4.22.
For the substance Lrrk1 protein (Fragment), Q3UHC2 1-2014, the probability that this protein is enriched in experiment [2] was 0.88.
Turning to “Syntaxin-1B2 (from UniProt P61264 1-288)”, the iTRAQ ratio in experiment [1] worked out at 4.57.
The substance “fructose-bisphosphate aldolase A homolog (Adult male testis cDNA, RIKEN clone 4933425L11 product) (enzyme)” gave a probability that this protein is enriched in experiment [2] of 0.87.
On to “similar to heat shock protein 1, alpha isoform 1”, for which the probability that this protein is enriched in experiment [2] was determined as 1.

(Values after US20100169988A1, “MEANS AND METHODS FOR ISOLATING AND DETERMINING NOVEL TARGETS FOR THE TREATMENT OF NEURODEGENERATIVE, NEUROLOGICAL OR NEUROPSYCHIATRIC DISORDERS AND COMPOSITIONS COMPRISING THE SAME” (priority 2006, published 2010).)
